The record followed here is US7128911.

This experiment deals with T1, C-RANKL protein (RANKL fragment with N-terminal cysteine-containing amino acid linker and hexa-histidine tag, … (mouse, UniProt O35235 137-316)).
T1 construct: Coated on ELISA plates at 10 ug/ml
T1 sequence: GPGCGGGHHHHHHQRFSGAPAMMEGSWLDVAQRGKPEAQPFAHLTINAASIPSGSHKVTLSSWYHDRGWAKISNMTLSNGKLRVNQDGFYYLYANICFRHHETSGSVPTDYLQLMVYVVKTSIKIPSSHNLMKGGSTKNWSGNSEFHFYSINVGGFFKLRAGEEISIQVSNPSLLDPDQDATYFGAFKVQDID
The experiment can be described thus: ELISA, plates coated with 10 ug/ml C-RANKL, serial dilutions of RANK-Fc, anti-Fc-HRP detection. Background: In an ELISA, binding on a coated surface is turned into a signal by an enzyme label.

B1: purified RANK-Fc fusion protein (Fc fusion)
chain: VTPPCTQERHYEHLGRCCSRCEPGKYLSSKCTPTSDSVCLPCGPDEYLDTWNEEDKCLLHKVCDAGKALVAVDPGNHTAPRRCACTAGYHWNSDCECCRRNTECAPGFGAQHPLQLNKDTVCTPCLLGFFSDVFSSTDKCKPWTNCTLLGKLEAHQGTTESDVVCSSSMTLRRPPKEAQAYLPS
The EC50 is the midpoint of the concentration-response curve. High values mean a less potent agent, low ones a more potent agent. B1 registered a concentration for a half-maximal effect (EC50) of 1 to 3 nM.
